The values that follow come from patent US20160376353A1 (DECIMMUNE THERAPEUTICS, published 2016).

For orientation: Kd means the constant that tells how readily two partners part at equilibrium.

First the molecules themselves.
B1: Chimeric 21G6, human heavy chain constant region IgG1 (wild type) (antibody, V domains shown)
VH: QVQLQQPGAELVKPGASVKLSCKASGYTFTSYYMYWVKQRPGQGLEWIGGINPSNGGTNFNEKFKSKATLTVDKSSSTAYMQLSSLTSEDSAVYYCTRWGYDREWFAYWGQGTLVTVSA
VL: DIVMTQAAPSVPVTPGESVSISCRSSKSLLHSNGNTYLYWFLQRPGQSPQVLIYRMSNLASGVPDRFSGSGSGTAFTLRISRVEAEDVGVYYCMQHLEYPFTFGSGTKLEIKR
notes: also called CHIgG1 / Ch; ch21G6 IgG1
B2: H2-21G6 / L2-21G6, wild type human IgG1 (antibody, V domains shown)
VH: QVQLVQSGAEVKKPGASVKVSCKASGYTFTSYYMYWVRQAPGQGLEWIGGINPSNGGTNFNEKFKSKATMTVDKSTSTAYMELRSLRSDDSAVYYCTRWGYDREWFAYWGQGTLVTVSS
VL: DIVMTQSPLSLPVTPGEPASISCRSSKSLLHSNGNTYLYWFLQKPGQSPQLLIYRMSNLASGVPDRFSGSGSGTDFTLKISRVEAEDVGVYYCMQHLEYPFTFGQGTKLEIKR
notes: also called H2/L2
B3: H3-21G6 / L1-21G6, wild type human IgG1 (antibody, V domains shown)
VH: QVQLVQSGAEVKKPGSSVKVSCKASGYTFTSYYMYWVRQAPGQGLEWIGGINPSNGGTNFNEKFKSKATITVDKSTSTAYMELSSLRSEDTAVYYCTRWGYDREWFAYWGQGTLVTVSS
VL: DIVMTQSPATLSVSPGERATISCRSSKSLLHSNGNTYLYWFQQKPGQPPKVLIYRMSNLASGVPARFSGSGSGTDFTLTISSVEPEDFATYYCMQHLEYPFTFGGGTKLEIKR
notes: also called H3/L1
B4: H3-21G6 / L1-21G6, human IgG1 N297Q (antibody, V domains shown)
VH: QVQLVQSGAEVKKPGSSVKVSCKASGYTFTSYYMYWVRQAPGQGLEWIGGINPSNGGTNFNEKFKSKATITVDKSTSTAYMELSSLRSEDTAVYYCTRWGYDREWFAYWGQGTLVTVSS
VL: DIVMTQSPATLSVSPGERATISCRSSKSLLHSNGNTYLYWFQQKPGQPPKVLIYRMSNLASGVPARFSGSGSGTDFTLTISSVEPEDFATYYCMQHLEYPFTFGGGTKLEIKR
notes: also called H3/L1 N297Q
B5: H2-21G6 / L2-21G6, human IgG1 N297Q (antibody, V domains shown)
VH: QVQLVQSGAEVKKPGASVKVSCKASGYTFTSYYMYWVRQAPGQGLEWIGGINPSNGGTNFNEKFKSKATMTVDKSTSTAYMELRSLRSDDSAVYYCTRWGYDREWFAYWGQGTLVTVSS
VL: DIVMTQSPLSLPVTPGEPASISCRSSKSLLHSNGNTYLYWFLQKPGQSPQLLIYRMSNLASGVPDRFSGSGSGTDFTLKISRVEAEDVGVYYCMQHLEYPFTFGQGTKLEIKR
notes: also called H2/L2 N297Q
B6: H2-21G6 / L1-21G6, wild type human IgG1 (antibody, V domains shown)
VH: QVQLVQSGAEVKKPGASVKVSCKASGYTFTSYYMYWVRQAPGQGLEWIGGINPSNGGTNFNEKFKSKATMTVDKSTSTAYMELRSLRSDDSAVYYCTRWGYDREWFAYWGQGTLVTVSS
VL: DIVMTQSPATLSVSPGERATISCRSSKSLLHSNGNTYLYWFQQKPGQPPKVLIYRMSNLASGVPARFSGSGSGTDFTLTISSVEPEDFATYYCMQHLEYPFTFGGGTKLEIKR
notes: also called H2/L1
B7: H2-21G6 / L3-21G6, wild type human IgG1 (antibody, V domains shown)
VH: QVQLVQSGAEVKKPGASVKVSCKASGYTFTSYYMYWVRQAPGQGLEWIGGINPSNGGTNFNEKFKSKATMTVDKSTSTAYMELRSLRSDDSAVYYCTRWGYDREWFAYWGQGTLVTVSS
VL: DIVMTQTPLSLSYTPGQPASISCRSSKSLLHSNGNTYLYWFLQKPGQSPQLLIYRMSNLASGVPDRFSGSGSGTDFTLKISRVEAEDVGVYYCMQHLEYPFTFGQGTKLEIKR
notes: also called H2/L3
B8: H2-21G6 / L3-21G6, human IgG1 N297Q (antibody, V domains shown)
VH: QVQLVQSGAEVKKPGASVKVSCKASGYTFTSYYMYWVRQAPGQGLEWIGGINPSNGGTNFNEKFKSKATMTVDKSTSTAYMELRSLRSDDSAVYYCTRWGYDREWFAYWGQGTLVTVSS
VL: DIVMTQTPLSLSYTPGQPASISCRSSKSLLHSNGNTYLYWFLQKPGQSPQLLIYRMSNLASGVPDRFSGSGSGTDFTLKISRVEAEDVGVYYCMQHLEYPFTFGQGTKLEIKR
notes: also called H2/L3 N297Q
B9: H3-21G6 / L3-21G6, wild type human IgG1 (antibody, V domains shown)
VH: QVQLVQSGAEVKKPGSSVKVSCKASGYTFTSYYMYWVRQAPGQGLEWIGGINPSNGGTNFNEKFKSKATITVDKSTSTAYMELSSLRSEDTAVYYCTRWGYDREWFAYWGQGTLVTVSS
VL: DIVMTQTPLSLSYTPGQPASISCRSSKSLLHSNGNTYLYWFLQKPGQSPQLLIYRMSNLASGVPDRFSGSGSGTDFTLKISRVEAEDVGVYYCMQHLEYPFTFGQGTKLEIKR
notes: also called H3/L3
B10: H1-21G6 / L2-21G6, wild type human IgG1 (antibody, V domains shown)
VH: QVQLVQSGAEVVKPGASVKLSCKASGYTFTSYYMYWVKQAPGQGLEWIGGINPSNGGTNFNEKFKSKATLTVDKSASTAYMELSSLRSEDTAVYYCTRWGYDREWFAYWGQGTLVTVSS
VL: DIVMTQSPLSLPVTPGEPASISCRSSKSLLHSNGNTYLYWFLQKPGQSPQLLIYRMSNLASGVPDRFSGSGSGTDFTLKISRVEAEDVGVYYCMQHLEYPFTFGQGTKLEIKR
notes: also called H1/L2
B11: H3-21G6 / L2-21G6, wild type human IgG1 (antibody, V domains shown)
VH: QVQLVQSGAEVKKPGSSVKVSCKASGYTFTSYYMYWVRQAPGQGLEWIGGINPSNGGTNFNEKFKSKATITVDKSTSTAYMELSSLRSEDTAVYYCTRWGYDREWFAYWGQGTLVTVSS
VL: DIVMTQSPLSLPVTPGEPASISCRSSKSLLHSNGNTYLYWFLQKPGQSPQLLIYRMSNLASGVPDRFSGSGSGTDFTLKISRVEAEDVGVYYCMQHLEYPFTFGQGTKLEIKR
notes: also called H3/L2
B12: H1-21G6 / L1-21G6, human IgG1 N297Q (antibody, V domains shown)
VH: QVQLVQSGAEVVKPGASVKLSCKASGYTFTSYYMYWVKQAPGQGLEWIGGINPSNGGTNFNEKFKSKATLTVDKSASTAYMELSSLRSEDTAVYYCTRWGYDREWFAYWGQGTLVTVSS
VL: DIVMTQSPATLSVSPGERATISCRSSKSLLHSNGNTYLYWFQQKPGQPPKVLIYRMSNLASGVPARFSGSGSGTDFTLTISSVEPEDFATYYCMQHLEYPFTFGGGTKLEIKR
notes: also called H1/L1 N297Q
B13: H1-21G6 / L3-21G6, wild type human IgG1 (antibody, V domains shown)
VH: QVQLVQSGAEVVKPGASVKLSCKASGYTFTSYYMYWVKQAPGQGLEWIGGINPSNGGTNFNEKFKSKATLTVDKSASTAYMELSSLRSEDTAVYYCTRWGYDREWFAYWGQGTLVTVSS
VL: DIVMTQTPLSLSYTPGQPASISCRSSKSLLHSNGNTYLYWFLQKPGQSPQLLIYRMSNLASGVPDRFSGSGSGTDFTLKISRVEAEDVGVYYCMQHLEYPFTFGQGTKLEIKR
notes: also called H1/L3
B14: H1-21G6 / L1-21G6, wild type human IgG1 (antibody, V domains shown)
VH: QVQLVQSGAEVVKPGASVKLSCKASGYTFTSYYMYWVKQAPGQGLEWIGGINPSNGGTNFNEKFKSKATLTVDKSASTAYMELSSLRSEDTAVYYCTRWGYDREWFAYWGQGTLVTVSS
VL: DIVMTQSPATLSVSPGERATISCRSSKSLLHSNGNTYLYWFQQKPGQPPKVLIYRMSNLASGVPARFSGSGSGTDFTLTISSVEPEDFATYYCMQHLEYPFTFGGGTKLEIKR
notes: also called H1/L1
B15: H3-21G6 / L2-21G6 (Table 2, constant region not stated) (antibody, V domains shown)
VH: QVQLVQSGAEVKKPGSSVKVSCKASGYTFTSYYMYWVRQAPGQGLEWIGGINPSNGGTNFNEKFKSKATITVDKSTSTAYMELSSLRSEDTAVYYCTRWGYDREWFAYWGQGTLVTVSS
VL: DIVMTQSPLSLPVTPGEPASISCRSSKSLLHSNGNTYLYWFLQKPGQSPQLLIYRMSNLASGVPDRFSGSGSGTDFTLKISRVEAEDVGVYYCMQHLEYPFTFGQGTKLEIKR
notes: human kappa light chain; also called H3/L2

Ends that are not written are not given here.

The first experiment deals with T1, N2 peptide (non-muscle myosin neo-epitope N2 12mer sequence).
T1 construct: also called N2 12-mer peptide
T1 peptide: LMKNMDPLNDNV
Nature of the experiment: SPR (BIACORE X100), antibody captured by anti-human Fc, N2 peptide in solution. The text has this: (§1) The remaining sequences represent the germline sequences with the highest homology that encode productive antibody. All of the humanized sequences maintain the murine 21G6 CDR regions which are shown inside the boxes in FIG. 1. The humanized variable regions were cloned into a vector containing wild type human IgG1, human IgG1 containing a mutation at amino acid 297 (Asn 297 to Q297), human IgG4 containing a mutation at amino acid 228 (serine to proline) and human kappa light chain. Each antibody (heavy and light) combination was expressed by transient co-transfection in 293A cells (in the presence of low Ig serum). The antibody containing supernatants were collected and analyzed for binding to the N2 peptide by ELISA and BIACORE™ X100 system. All experiments were performed using a BIACORE™ X100 system. For antibody capture experiments, a CM5 chip was prepared by 10 ul/minute injection of EDC/NHS (N-ethyl-N′-(3-dimethylaminopropyl) carbodiimide (EDC), N-hydroxysuccinimide (NHS) for 7 minutes, followed by a 10 ul/minute injection of anti-human Fc (GE Lifesciences) at a concentration of 25 ug/ml in sodium acetate at pH 5 for 3 minutes. Ethanolamine-HCl was injected for 7 minutes at 10 ul/minute. The chimeric or humanized antibodies were captured onto flow cell 2 and N2 peptide at varying concentrations was flowed over flow cells 1 and 2 at a rate of 30 ul/minute with a contact time of 120 seconds and a dissociation period of 120 seconds. Complete removal of captured antibody was accomplished by regeneration with 3M MgCl2 for 30 seconds at a flow rate of 10 ul/minute. For peptide immobilized experiments, a CM5 chip was prepared by 10 ul/minute injection of EDC/NHS (N-ethyl-N′-(3-dimethylaminopropyl) carbodiimide (EDC), N-hydroxysuccinimide (NHS) for 7 minutes, followed by a 10 ul/minute injection of NEUTRAVIDIN® protein (ThermoFisher Pierce) at a concentration of 5 ug/ml in sodium acetate, pH 5 to an immobilization response of 100-200RU. Ethanolamine-HCl was injected for 7 minutes at 10 ul/minute. Biotin-labeled N2 peptide was captured on flow channel 2 with the goal of an experimental Rmax of about 50-100RU. Purified chimeric or humanized antibodies were flowed over both flow channels at a rate of 30 ul/min for a contact time of 120 seconds and allowed to dissociate for 600 seconds.
Background: Surface plasmon resonance follows binding to a sensor surface in real time, without labels.
As to B1, the Kd is 6 to 7 µM.

Consider B2, for which the Kd is 6.4 to 8.4 µM.

With B3, the Kd came to 7.9 µM.

Take B4: the Kd was found to be 20 µM.

Consider B5, for which the Kd was in the range of 3.1 to 3.7 µM.

With B6, the Kd lay in the range of 9.8 to 11 µM.

Turning to B7, the Kd was 9.56 µM.

Turning to B8, the Kd was found to be 8.8 µM.

As for B9, the equilibrium dissociation constant (Kd) came out at 9.38 µM.

On to B10, for which the Kd came to 17 µM.

With B11, the Kd came to 11.5 µM.

Regarding B12, the dissociation constant Kd was 9 µM.

Take B13: the Kd is 20.9 µM.

For B14, the Kd is 6.6 to 7.7 µM.

The target in another experiment is T2, Biotin-labeled N2 peptide (also: biotin label, position not given here).
T2 construct: also called immobilized N2
T2 peptide: LMKNMDPLNDNV
Nature of the experiment: SPR (BIACORE X100), biotin-N2 peptide on NeutrAvidin chip, antibody in solution; kd/ka (monovalent).
Excerpt: as §1
Consider B15, for which the Kd worked out at 0.64 µM.
